This is an account of results in a protein production outcome set (Wang et al. 2014).

This series is described as follows: label from the status in PepcDB records.
Turning to “MGQNQFRWSNEQLREHVEVIDGTRSPHIVLRNATYLNSYIREWMQANIWIYDDRIIYVGEKLPEQLHECEVIDCDGKYVVPSYIEPHAHPYQLYNPETLANHAMQFGTTTFINDNLTLFFTLKRELEHHHHHH”, the protein production result was “failed”.
Under “MGQPQQPEGAGAEEAAAGTDSGTDTGTGAGAGAATGASATRPPLRVGMVGYAFMGAAHSQGWRTAGRVFDLPLNPVLAAICGRDADAVRLAADRHGWASTETDWRTLVERDDIDLVDICTPGDSHSEIALAALAAGKHVLCEKPLANTVEEAQAMTRAAEEAAARGQLAMVGFNYRRVPATALARRMVAEGRVGRLRHLRVTYLQDWLVDPKAPLTWRLRKELAGSGALGDLGAHIVDLAQYLSGERIAGVSALTETFVRERPLPAGAPRGLSAGSADGVTGQVTVDDAAVFTGRLTSGALVSFEATRYATGRKNALRIELNGERGSLAFDLERLNELSYHDGTEPGEHAGFRRILVTEPEHPYLEAWWPPGHGLGYEHTFVHQARDLVHAVAEGRGPEPSFADGLQVQRVLAAVEESAEKNSVYTPITP” stands “failed”; under “MGQTALARGSSSTPTSQALYSDFSPPEGLEELLSAPPPDLVAQRHHGWNPKDCSENIDVKEGGLCFERRPVAQSTDGVRGKRGYSRGLHAWEISWPLEQRGTHAVVGVATALAPLQADHYAALLGSNSESWGWDIGRGKLYHQSKGLEAPQYPAGPQGEQLVVPERLLVVLDMEEGTLGYSIGGTYLGPAFRGLKGRTLYPSVSAVWGQCQVRIRYMGERRVEEPQSLLHLSRLCVRHALGDTRLGQISTLPLPPAMKRYLLYK”, “failed”.
For “MGRIAWVVRADRPCAATNTHINEPPRRALTSGPGVFIRRTVAAAATRRRYPSAMAIHADTHDDLRLFQTGEHACGYWSDRRARDLVLDPHDPRLGAIYPQALAWGFRRSGDLVYRPHCERCRACVPVRIAVDAFHPDRSQRRCLTRNQDLVVRVVAAERTDEQLALYRQYLKYRHPGGGMDEHGATEFDQFLIGGWSHGRFLEIREPAIAHLPGRLLAVAVTDVTEHALSAIYTFYAPEAAARSLGTFAILQQIQWAQRERRAHVYLGYWIEGHAKMNYKRRFSALEAYDGRHWCDLPAHPSGT” the value was “failed”; for “MGRRFDHLGDVEAFIIVAEKGSMTEAAVALATTASVLSRAITRLETRLGAQLMRRTTRRLNLTDEGRAYLEQARAAFSMIDDAERAIQGPTGASLTGHVRISVPTTYGHHRLPAMLERFMQAYPEVQIELSITNRNVDLVAEGYDLAIRLGPLPDSGLVARKLEDASLRLVAAPHYLERAGMPQDVEDLAEHQCLPFVMPSTGRCAPWLFHVDGRDLDWTPPGRIQVFDDVLGVVSLAESGLGICQIYDFIIRDRVKEGRLVEVLDHAQGRFRPFSLIFAPHRRLSAATRTLIDFLVEK”, “failed”; for “MGRYILGITVLVTVVVAPLEAGLSSVALLALLAAFGIGVQVIAPWFIPLVRSVDTPDDQTTETLNRLRERAGLTVRDVRVLDTEQEGTANVIVRGAPGYRRLFVTSTFLDVFDDEMATALLAVQAGRQEARVRARLIGGLLIALVPVFAALADIGPLWPLVGASLGLLVVTLWVTRRGVRAADDYAAEGVGPDTVADALERYADVHDMEPPRRRLANPFSKSPPLGNRIDRLREQAGE”, “failed”.
For “MGSEVVNPTKPRFDLSMSKRTRKPWSSLINDMHHHAICTQSSQPKPDKEQEQIEDKEIDRKSLNNLMRCDEKLNGEADVNNKSSLDQHFEDGEGIKPTMQLVVKKEKQGGLKFKGLSQHIFRLIEFLLSYRTDY” the value was “failed”; for “MGSGHILGTSRLPKETWMANAECFVLMLPLRECAGRCHVCLKTAYTMRHRLIECLSAYSPSFKTGRGCGCELDETYFPESFKGNHTKGSFTMPRHSRHRGKQVHRRGLSREQICVMTGVNDSNETFLQVSGRGILSRKRAMDVLRDRIASASVVATDKASAYVDVLAELEVDAHTAYDSKDPSEGTINRINTVHSLLDTFMKPFKGVSTKHLGTYLAWFKWCRTFMATDSGTAERTVARQLANGVCRSRIHDMFNVLPP”, “failed”; for “MGSGKERDTFVYLAKLSEQAERYEEMVESMKSVAKLNVDLTVEERNLLSVGYKNVIGSRRASWRIFSSIEQKEAVKGNDVNVKRIKEYMEKVELELSNICIDIMSVLDEHLIPSASEGESTVFFNKMKGDYYRYLAEFKSGNERKEAADQSLKAYEIATTAAEAKLPPTHPIRLGLALNFSVFYYEIMNAPERACHLAKQAFDEAISELDTLNEESYKDSTLIMQLLRDNLTLWTSDISEEGGDDAHKTNGSAKPGAGGDDAE”, “failed”.
Turning to “MGSGSMLQSWNLKTSKRTGSFDAKSSINAVAISPDGNTLATGIRDNAIKLWNINDGKLIHTLTGHQGQVRTVAFSPDGTLLASGSSDGTVKLWNATTGKEINTFTAHKEQVWSVAFNPDGKTLASTGQDGSVKIWGVSPQLEHHHHHH”, the protein production entry is recorded as “not failed”.
Under “MGSLERSKKKAQVWKKAVIHFSLCFVMGFFTGFAPAGKASFFSNFETTSYTSTKSPIPPQPFENATYTQHSLLNRTLINSQSQAPAPAESREAEGETRSLSEKEDENQVKVTPRGLVIVVTPIITKDRYKNVLLRRMANTLRLVPPPLLWIVVEKHSDGEEKSSSTMLRKTGIMYRRIVFKEDFTSLESELDHQRNLALRHIEHHKLSGIVHFAGLNNIYDLDFFVKIRDIEVFGTWPMALLSANRKRVVVEGPVCESSQVLGWHLRKINNETETKPPIHISSFAFNSSILWDPERWGRPSSVEGTKQDSIKYVKQVVLEDDTKLKGLPAQDCSKIMLWRLKFPTRTRLST” stands “failed”.
Under “MGSLYTSELSRAVSESVAAALQRSFQGELRSASALGSGWSTSAELLNRNDSTERYFVKLSEPQAVSMFSAEFEGIQAMAESETVRVPAPICYGNTAERSFIVLEYLELGGIGNEAVYRDFGEKLAAMHRCSSGGRGYGWHRGNTIGSTPQLNTWMHSWADFFVENRLRYQLKLARSRQGGRLRNEDALLQRVHSVLQEHEIQHQVTPSLVHGDLWTGNVATLRNQNEVVIFDPATYYGDREVDLAMTELFGRLPRAFYQAYDASWPLPKGYREKRRVIYNLYHILNHGALFGGGYYDQAQSMIETILR” stands “not failed”; under “MGSMDQSIAVKSPLTYAEALANTIMNTYTVEELPPANRWHYHQGVFLCGVLRLWEATGEKRYFEYAKAYADLLIDDNGNLLFRRDELDAIQAGLILFPLYEQTKDERYVKAAKRLRSLYGTLNRTSEGGFWHKDGYPYQMWLDGLYMGGPFALKYANLKQETELFDQVVLQESLMRKHTKDAKTGLFYHAWDEAKKMPWANEETGCSPEFWARSIGWYVMSLADMIEELPKKHPNRHVWKNTLQDMIKSICRYQDKETGLWYQIVDKGDRSDNWLESSGSCLYMYAIAKGINKGYLDRAYETTLLKAYQGLIQHKTETSEDGAFLVKDICVGTSAGFYDYYVSRERSTNDLHGAGAFILAMTELEPLFRSAGK”, “not failed”; under “MGSSHHHHHHSSGENLYFQGHMIYPYKGKTPQIAASAFIADYVTITGDVVIGEETSIWFNTVIRGDVAPTVIGNRVNIQDNSILHQSPNNPLIIEDGVTVGHQVILHSAIVRKNALIGMGSIILDRAEIGEGAFIGAGSLVPPGKKIPPNTLALGRPAKVVRELTEDDIREMERIRREYVEKGQYYKALQQQRTSCADKKELP”, “not failed”.
Under “MGSSHHHHHHSSGLVPRGSHRSEFSSRSGYGEYVQQTLQPGMRVRMLDDYEEISAGDEGEFRQSNNGIPPVQVFWQSTGRTYWVHWHMLEILGPEEATEDKASAAVEKGAGATVLGTAFPS” stands “not failed”.
For “MGSSHHHHHHSSGRENLYFQGMAATAREDGASGQERGQRGCEHYDRGCLLKAPCCDKLYTCRLCHDNNEDHQLDRFKVKEVQCINCEKIQHAQQTCEECSTLFGEYYCDICHLFDKDKKQYHCENCGICRIGPKEDFFHCLKCNLCLAMNLQGRHKCIENVSRQNCPICLEDIHTSRVVAHVLPCGHLLHRTCYEEMLKEGYRCPLCMHSALDMTRYWRQLDDEVAQTPMPSEYQNMTVDILCNDCNGRSTVQFHILGMKCKICESYNTAQAGGRRISLDQQ”, the protein production result is listed as “failed”.
Turning to “MGSSHHHHHHSSGRENLYFQGMRLKSEMFVSALIRRVFAAGGFAAVEKKGAEAAGAIFVRQRLRDGRENLYGPAPQSFADDEDIMRAERRFETRLAGVEGEEIAALLERERRFDSDLWVVEIETDEIGTLLTLVDQPQA”, the protein production entry is on record as “not failed”.
For “MGSSLPFDLILEILQRTPAESLLRFKSTCKKWYELISNDKRFMYKHLDKSTKRFLRIENRERVQILDPVTEILAVSTIPNELRHKYFTLIHCDGLMLGMCYEELGSDPNLAVWNPVMRKIKWIKPSPPLVCYWGSDYLGFGYDKTFRDNYKILRFTYLGDDDDDESYPKCQIYEFNSGSWRSIEAKFDGEIDVEVDGVSVNGSMYWIELQEKKNFILSFDFSKETFNRICDSPLYWDIKRLGCFNGDRLSLLQQNEATREIHVSVTNKLSDEVVSFSRYFSVTLPDIPLFRSIDILPLPGCFIGKNRNIIAWCEQLVGKYDDHTSIILYEIGEGGVTKRIRTGRHEADEDYNDLDNCSYVYVPSLIPVPE” the value was “failed”; for “MGTDTAQARPTDEAAERRREQRGWYFYDWACSVYSTSVLTVFLGPYLTSVAKSAADADGYVHPLGVPVRAGSFFAYSVSLSVIVAVVVMPLVGAAADRTGRKKPLLAVTAYVGAAATAGMFFLDGDRYLLGGVLLLVANAAQAVSMMLYNSYLPQIAPPEERDAVSSRGWAFGYAAGALVLIANLVLFLAHDSFGVSESTAVRICLASAGLWWGAFTLIPLKRLRDRGSPVKEITAPGPRRLAATVRDMRRHPLTLSFLLAYLIYNDGIQTVISQASVYGSEELGLSQSTLIVAVLLVQVLAVGGALGMGRLARTYGARRTILGSLVAWTVTLGAGYFLPAGAPFWFFVLASGIGLVLGGSQALSRSLFSHLVPAGKEAEYFSAYEMSDRGMSWLGPLLFGLTYQLTGSYRDAIISLVAFFVVGFVLLARVPVRQAVRDAGNSVPERI”, “failed”; for “MGTEATEQVSWGHYSGDEEDAYSAEPLPELCYKADVQAFSRAFQPSVSLTVAALGLAGNGLVLATHLAARRAARSPTSAHLLQLALADLLLALTLPFAAAGALQGWSLGSATCRTISGLYSASFHAGFLFLACISADRYVAIARALPAGPRPSTPGRAHLVSVIVWLLSLLLALPALLFSQDGQREGQRRCRLIFPEGLTQTVKGASAVAQVALGFALPLGVMVACYALLGRTLLAARGPERRRALRVVVALVAAFVVLQLPYSLALLLDTADLLAARERSCPASKRKDVALLVTSGLALARCGLNPVLYAFLGLRFRQDLRRLLRGGSCPSGPQPRRGCPRRPRLSSCSAPTETHSLSWDN”, “failed”.
For “MGTETVVHDQARWAMAAMERRLAVAKAQLLQQQQQKNEKDKKGTSDVDVSMKESHQADSLPTPSKTSIKKVDPKDDDSVAYTKLSHPVDENLLATNVKFSSAKGTIVDKVLHNLLRSGDSAQKYLQGTKSVKLDNYILLDNFVQSRSSASGSKKASQKDSKRSKSRMSMKRLKKSGALHIPKDLQKFDLFKPMHGMWESYMMKLIKVTGKIQLSLTLLSADLHGAFMFGNPSFFHKSVVLGYDLLSLTHFPKLNFSQPILLVTVAECKIASFTGVQGIMVRETSETFGIITRDDKFRGILKLFSPIYLP” the value was “failed”; for “MGTFIEPSKVTLKDYLNHWLEIKSMSIEKSTFAGYKAFINQHVIPSIGMVTLHKLNVIHIQKCYKTAIDKGIANNSILLMHRILKSALNLAVKQNIISRNPADFAEIPLEHHHHHH”, “failed”.
Under “MGTKERILEVSKELFFEKGYQGTSVEEIVKRANLSKGAFYFHFKSKEELITEIIERTHKKIISLFEENKEKTPEELLEMFLEVLYREKKVVYIFLFDLLCSEKFRNIYFEKIEDAKRRFEKFLEKHFPSKAEILSEIILGFLRQLILHYVIKEERELPFLKEKLREGLKLIFEGVKKCG” stands “not failed”.
